Test results as given in patent US12371675B2, “Process and microorganism for synthesis of adipic acid from carboxylic acids” (THE GOVERNING COUNCIL OF THE UNIVERSITY OF TORONTO, priority 2015, dated 2025).

Columns and labels:
[1] = CAR reductase activity, NADPH oxidation at 340 nm; type: biochemical; conditions: ND = no activity was detected
Method: Reductase activity was measured spectrophotometrically by following the oxidation of NADPH depletion at 340 nm.
It has been shown that the N. iowensis CAR has a broad substrate range, though its maximal activity was usually observed with aromatic substrates such as benzoic and cinnamic acids. CARs gene sequences homologues to the N. iowensis CAR (Uniprot number: Q6RKB1), were selected from GenBank database. Based on presence of adenylation (AMP-binding PF00501) and reduction (NAD-binding PF07993) domains accompanied with phosphopantetheinyl binding motif (PF00530) 13 CAR genes (mostly from Mycobacterium) were cloned and expressed in E. coli. (Table 4). As CAR activation enzymes, phosphopantetheinyl transferases (PPTs) from E. coli (P19925) and Bacillus subtilis (P39135), were used which were co-expressed with the selected CAR genes from a separate plasmid. Using 1-liter E. coli cultures with overnight induction by IPTG, 12 soluble CAR proteins were purified using affinity chromatography on a Ni-NTA resin.

[2] = In vivo whole cell biotransformation by E. coli expressing CARs; type: cell-based; conditions: 24 h; for In vivo conversion efficiency (%) to: 1,4-butanediol: 10 mM 4-hydroxybutyric acid; for In vivo conversion efficiency (%) to: 1,6-hexanediol / In vivo conversion efficiency (%) to: 6-hydroxyhexanoic acid: 10 mM adipic acid
Method: E. coli cells expressing recombinant CARs with BSU03570 phosphopantetheinyl transferase were grown on LB media with […], supplemented with 2% glycerol aerobically on 37° C., until the culture optical density (OD 600 nm) reached 0.6-0.8. At this point protein expression was induced with 0.4 mM IPTG and substrate (adipic acid or 4-hydroxybutyric acid) for final 10 mM concentration was added. Samples were taken at 6 h, 24 h and 48 h, centrifuged, supernatant was filtered through 10 kDa centrifugal filters. Products were analyzed with HPLC or LC-MS. Negative control experiments were performed using E. coli cells harboring empty plasmids. All results of in vivo experiments are means from at least two independent determinations.

[3] = In vitro biotransformation by CARs coupled with aldehyde reductase PP_3370; type: biochemical; conditions: Table 12 title: 10 mM adipic acid (12 h) in vitro, CARs coupled with PP3370
[4] = as above; type: biochemical; conditions: Table 12 title: 10 mM 4-hydroxybutyric acid (12 h) in vitro, CARs coupled with PP3370
[5] = OYE hydrogenation activity screen, NADPH oxidation at 340 nm; type: biochemical; conditions: 1 mM substrate, 0.25 mM NADPH, 2.5 μg protein; cut-off 0.05 U/mg protein; ND = not detected
Method: 25 putative OYE genes (Table 1) were cloned based on the Pfam domain of the FMN oxidoreductase family PF00724. Purified OYEs were screened for hydrogenation activity against acrolein, 2-cyclohexn-1-one, cis,cis-muconic acid, trans,trans-muconic acid, and 2-hexendioic acid. Substrate specificity was measured spectrophotometrically in 96-well plates by following incubation for 20 min at room temperature in the anaerobic chamber. Buffers and reagents were also degassed and sparged with Ar. Reaction mixtures contained potassium phosphate (50 mM and pH 7.0), NaCl (10 mM), NADPH (0.25 mM), various substrates (1 mM) and protein (2.5 μg) in a final volume of 200 μL. Enzyme reactions were monitored by following the decrease in absorbance at 340 nm (ε340 nm=6,200/M·cm) as a measure of the conversion of the cofactor NADPH to NADP+.

[6] = Whole-cell biotransformation with E. coli strains over-expressing OYEs; type: cell-based; conditions: E. coli over-expressing OYE

B1: MAP_1040c: carboxylate reductase (CAR) from M. paratuberculosis ATCC BAA-968 (protein)
chain: MSTATHDERLDRRVHELIATDPQFAAAQPDPAITAALEQPGLRLPQIIRTVLDGYADRPALGQRVVEFVTDAKTGRTSAQLLPRFETITYSEVAQRVSALGRALSDDAVHPGDRVCVLGFNSVDYATIDMALGAIGAVSVPLQTSAAISSLQPIVAETEPTLIASSVNQLSDAVQLITGAEQAPTRLVVFDYHPQVDDQREAVQDAAARLSSTGVAVQTLAELLERGKDLPAVAEPPADEDSLALLIYTSGSTGAPKGAMYPQSNVGKMWRRGSKNWFGESAASITLNFMPMSHVMGRSILYGTLGNGGTAYFAARSDLSTLLEDLELVRPTELNFVPRIWETLYGEFQRQVERRLSEAGDAGERRAVEAEVLAEQRQYLLGGRFTFAMTGSAPISPELRNWVESLLEMHLMDGYGSTEAGMVLFDGEIQRPPVIDYKLVDVPDLGYFSTDRPHPRGELLLRTENMFPGYYKRAETTAGVFDEDGYYRTGDVFAEIAPDRLVYVDRRNNVLKLAQGEFVTLAKLEAVFGNSPLIRQIYVYGNSAQPYLLAVVVPTEEALASGDPETLKPKIADSLQQVAKEAGLQSYEVPRDFIIETTPFSLENGLLTGIRKLAWPKLKQHYGERLEQMYADLAAGQANELAELRRNGAQAPVLQTVSRAAGAMLGSAASDLSPDAHFTDLGGDSLSALTFGNLLREIFDVDVPVGVIVSPANDLAAIASYIEAERQGSKRPTFASVHGRDATVVRAADLTLDKFLDAETLAAAPNLPKPATEVRTVLLTGATGFLGRYLALEWLERMDMVDGKVIALVRARSDEEARARLDKTFDSGDPKLLAHYQQLAADHLEVIAGDKGEANLGLGQDVWQRLADTVDVIVDPAALVNHVLPYSELFGPNALGTAELIRLALTSKQKPYTYVSTIGVGDQIEPGKFVENADIRQMSATRAINDSYANGYGNSKWAGEVLLREAHDLCGLPVAVFRCDMILADTTYAGQLNLPDMFTRLMLSLVATGIAPGSFYELDADGNRQRAHYDGLPVEFIAAAISTLGSQITDSDTGFQTYHVMNPYDDGVGLDEYVDWLVDAGYSIERIADYSEWLRRFETSLRALPDRQRQYSLLPLLHNYRTPEKPINGSIAPTDVFRAAVQEAKIGPDKDIPHVSPPVIVKYITDLQLLGLL
Question: For B1, which “Activity [U/mg protein] 4-hydroxybutyric acid, 5 mM” value [1] is on record?
Answer: 0.014 ± 0.006 U/mg protein

Question: And the “Activity [U/mg protein] adipic acid, 5 mM” value [1]?
Answer: 0.053 ± 0.006 U/mg protein

Question: What about the “In vivo conversion efficiency (%) to: 1,4-butanediol” value [2] of the same molecule?
Answer: 81.6 ± 18.3%

Question: What about the “In vivo conversion efficiency (%) to: 1,6-hexanediol” value [2] of the same molecule?
Answer: 15.4 ± 1.7%

Question: What about the “In vivo conversion efficiency (%) to: 6-hydroxyhexanoic acid” value [2] of the same molecule?
Answer: 5.8 ± 0.2%

Question: And the “In vitro conversion efficiency % to: 1,6-hexanediol” value [3]?
Answer: 15.4 ± 1.7%

Question: And the “In vitro conversion efficiency % to: 6-hydroxyhexanoic acid” value [3]?
Answer: 5.8 ± 0.2%

Question: And the “In vivo conversion efficiency (%) to: 1,4-butanediol” value [4]?
Answer: 81.6 ± 18.3%

B2: EC5625: OYE protein from Escherichia coli K12 (protein)
chain: MSSEKLYSPLKVGAITAANRIFMAPLTRLRSIEPGDIPTPLMAEYYRQRASAGLIISEATQISAQAKGYAGAPGIHSPEQIAAWKKITAGVHAENGHMAVQLWHTGRISHASLQPGGQAPVAPSALSAGTRTSLRDENGQAIRVETSMPRALELEEIPGIVNDFRQAIANAREAGFDLVELHSAHGYLLHQFLSPSSNHRTDQYGGSVENRARLVLEVVDAGIEEWGADRIGIRVSPIGTFQNTDNGPNEEADALYLIEQLGKRGIAYLHMSEPDWAGGEPYTDAFREKVRARFHGPIIGAGAYTVEKAETLIGKGLIDAVAFGRDWIANPDLVARLQRKAELNPQRAESFYGGGAEGYTDYPTL
Question: Which “Activity [U/mg protein] 2-cyclohexen-1-one” value [5] does the source give for B2 here?
Answer: 0.18 U/mg protein

Question: And the “hydrogenation of 2-hexenedioic acid into adipic acid” value [6]?
Answer: no hydrogenation

B3: MSMEG_2956: carboxylate reductase (CAR) from M. smegmatis ATCC 700084 (protein)
chain: MTIETREDRFNRRIDHLFETDPQFAAARPDEAISAAAADPELRLPAAVKQILAGYADRPALGKRAVEFVTDEEGRTTAKLLPRFDTITYRQLAGRIQAVTNAWHNHPVNAGDRVAILGFTSVDYTTIDIALLELGAVSVPLQTSAPVAQLQPIVAETEPKVIASSVDFLADAVALVESGPAPSRLVVFDYSHEVDDQREAFEAAKGKLAGTGVVVETITDALDRGRSLADAPLYVPDEADPLTLLIYTSGSTGTPKGAMYPESKTATMWQAGSKARWDETLGVMPSITLNFMPMSHVMGRGILCSTLASGGTAYFAARSDLSTFLEDLALVRPTQLNFVPRIWDMLFQEYQSRLDNRRAEGSEDRAEAAVLEEVRTQLLGGRFVSALTGSAPISAEMKSWVEDLLDMHLLEGYGSTEAGAVFIDGQIQRPPVIDYKLVDVPDLGYFATDRPYPRGELLVKSEQMFPGYYKRPEITAEMFDEDGYYRTGDIVAELGPDHLEYLDRRNNVLKLSQGEFVTVSKLEAVFGDSPLVRQIYVYGNSARSYLLAVVVPTEEALSRWDGDELKSRISDSLQDAARAAGLQSYEIPRDFLVETTPFTLENGLLTGIRKLARPKLKAHYGERLEQLYTDLAEGQANELRELRRNGADRPVVETVSRAAVALLGASVTDLRSDAHFTDLGGDSLSALSFSNLLHEIFDVDVPVGVIVSPATDLAGVAAYIEGELRGSKRPTYASVHGRDATEVRARDLALGKFIDAKTLSAAPGLPRSGTEIRTVLLTGATGFLGRYLALEWLERMDLVDGKVICLVRARSDDEARARLDATFDTGDATLLEHYRALAADHLEVIAGDKGEADLGLDHDTWQRLADTVDLIVDPAALVNHVLPYSQMFGPNALGTAELIRIALTTTIKPYVYVSTIGVGQGISPEAFVEDADIREISATRRVDDSYANGYGNSKWAGEVLLREAHDWCGLPVSVFRCDMILADTTYSGQLNLPDMFTRLMLSLVATGIAPGSFYELDADGNRQRAHYDGLPVEFIAEAISTIGSQVTDGFETFHVMNPYDDGIGLDEYVDWLIEAGYPVHRVDDYATWLSRFETALRALPERQRQASLLPLLHNYQQPSPPVCGAMAPTDRFRAAVQDAKIGPDKDIPHVTADVIVKYISNLQMLGLL
Question: Which “Activity [U/mg protein] adipic acid, 5 mM” value [1] does the source give for B3 here?
Answer: 0.078 ± 0.001 U/mg protein

Question: What about the “In vivo conversion efficiency (%) to: 1,4-butanediol” value [2] of the same molecule?
Answer: 59.4 ± 7.3%

Question: And the “In vivo conversion efficiency (%) to: 1,6-hexanediol” value [2]?
Answer: 27.7 ± 10.3%

Question: And the “In vivo conversion efficiency (%) to: 6-hydroxyhexanoic acid” value [2]?
Answer: 34.2 ± 9.1%

Question: What about the “In vitro conversion efficiency % to: 1,6-hexanediol” value [3] of the same molecule?
Answer: 27.7 ± 10.3%

Question: What about the “In vitro conversion efficiency % to: 6-hydroxyhexanoic acid” value [3] of the same molecule?
Answer: 34.2 ± 9.1%

Question: And the “In vivo conversion efficiency (%) to: 1,4-butanediol” value [4]?
Answer: 59.4 ± 7.3%

B4: MSMEI_5586: carboxylate reductase (CAR) from M. smegmatis ATCC 700084 (protein)
chain: MHQLTVTGMNICEVQRLFPRMTSDVHDATDGVTETALDDEQSTRRIAELYATDPEFAAAAPLPAVVDAAHKPGLRLAEILQTLFTGYGDRPALGYRARELATDEGGRTVTRLLPRFDTLTYAQVWSRVQAVAAALRHNFAQPIYPGDAVATIGFASPDYLTLDLVCAYLGLVSVPLQHNAPVSRLAPILAEVEPRILTVSAEYLDLAVESVRDVNSVSQLVVFDHHPEVDDHRDALARAREQLAGKGIAVTTLDAIADEGAGLPAEPIYTADHDQRLAMILYTSGSTGAPKGAMYTEAMVARLWTMSFITGDPTPVINVNFMPLNHLGGRIPISTAVQNGGTSYFVPESDMSTLFEDLALVRPTELGLVPRVADMLYQHHLATVDRLVTQGADELTAEKQAGAELREQVLGGRVITGFVSTAPLAAEMRAFLDITLGAHIVDGYGLTETGAVTRDGVIVRPPVIDYKLIDVPELGYFSTDKPYPRGELLVRSQTLTPGYYKRPEVTASVFDRDGYYHTGDVMAETAPDHLVYVDRRNNVLKLAQGEFVAVANLEAVFSGAALVRQIFVYGNSERSFLLAVVVPTPEALEQYDPAALKAALADSLQRTARDAELQSYEVPADFIVETEPFSAANGLLSGVGKLLRPNLKDRYGQRLEQMYADIAATQANQLRELRRAAATQPVIDTLTQAAATILGTGSEVASDAHFTDLGGDSLSALTLSNLLSDFFGFEVPVGTIVNPATNLAQLAQHIEAQRTAGDRRPSFTTVHGADATEIRASELTLDKFIDAETLRAAPGLPKVTTEPRTVLLSGANGWLGRFLTLQWLERLAPVGGTLITIVRGRDDAAARARLTQAYDTDPELSRRFAELADRHLRVVAGDIGDPNLGLTPEIWHRLAAEVDLVVHPAALVNHVLPYRQLFGPNVVGTAEVIKLALTERIKPVTYLSTVSVAMGIPDFEEDGDIRTVSPVRPLDGGYANGYGNSKWAGEVLLREAHDLCGLPVATFRSDMILAHPRYRGQVNVPDMFTRLLLSLLITGVAPRSFYIGDGERPRAHYPGLTVDFVAEAVTTLGAQQREGYVSYDVMNPHDDGISLDVFVDWLIRAGHPIDRVDDYDDWVRRFETALTALPEKRRAQTVLPLLHAFRAPQAPLRGAPEPTEVFHAAVRTAKVGPGDIPHLDEALIDKYIRDLREFGLI
Question: For B4, which “Activity [U/mg protein] 4-hydroxybutyric acid, 5 mM” value [1] is on record?
Answer: 0.058 ± 0.033 U/mg protein

Question: And the “Activity [U/mg protein] adipic acid, 5 mM” value [1]?
Answer: 0.017 ± 0.005 U/mg protein

Question: And the “In vivo conversion efficiency (%) to: 1,4-butanediol” value [2]?
Answer: 78.4 ± 6.2%

Question: And the “In vivo conversion efficiency (%) to: 1,6-hexanediol” value [2]?
Answer: 10.2 ± 3.4%

Question: And the “In vivo conversion efficiency (%) to: 6-hydroxyhexanoic acid” value [2]?
Answer: 30.3 ± 0.4%

Question: What about the “In vitro conversion efficiency % to: 1,6-hexanediol” value [3] of the same molecule?
Answer: 10.2 ± 3.4%

Question: And the “In vitro conversion efficiency % to: 6-hydroxyhexanoic acid” value [3]?
Answer: 30.3 ± 0.4%

Question: And the “In vivo conversion efficiency (%) to: 1,4-butanediol” value [4]?
Answer: 78.4 ± 6.2%
